Measurements: paper PMC10916747, “Safety, biodistribution and radiation dosimetry of the Arg-Gly-Asp peptide ^99mTc-maraciclatide in healthy volunteers” (Nuclear Medicine Communications, 2024)
Numbered stars: 1 amine (or outer) side, 2 acyl side, 3 side chain; on linkers, the order of the positions; unused ones are H or OH. Bridge positions count the residues as written; N and C are the ends. Side chains are listed from the residue outwards. Peptide text beside a SMILES is read from it. * marks the point of attachment. X1 = C/C(=N\O)C(C)(C)NCCC(CCNC(C)(C)/C(C)=N/O)CCN*; Glutaryl = O=C(CCCC(=O)[*:2])[*:1]; X2 = NC(=O)COCC(=O)NCCOCCOCCOCCN*

Legend:
healthy volunteers [1] = assay: Phase 1 safety assessment (adverse events, vital signs, ECG, laboratory parameters)
Experimental: In 2003, a phase 1, placebo-controlled, observer-blinded, randomised, single ascending-dose study was performed. The study aimed to assess the safety of three intravenous levels of maraciclatide and the biodistribution and radiation dosimetry of ^99mTc-maraciclatide in healthy volunteers, assessing the potential of ^99mTc-maraciclatide as a radiopharmaceutical for diagnostic imaging.
Safety data on vital signs (heart rate, blood pressure, temperature, and oxygen saturation), electrocardiograms (ECG), laboratory parameters and physical examinations (general appearance, lung, abdominal, cardiovascular, and neurological exam by a qualified clinician) were measured prior to administration, and at multiple time points up to 7 days following administration. Based on clinical assessment, new abnormal or worsening clinical findings were defined as a change from the participant’s normal baseline to abnormal. All abnormal changes were recorded as adverse events (AEs).
Safety assessments were performed by an observer blinded to the administration of the placebo and ^99mTc-maraciclatide. A thorough review of safety data was performed before the decision was made to escalate to the higher dose in participants.

clinical = assay: clinical; parameters: species or system human; details: human, in vivo, iv, total radioactivity
Experimental: (§1) On the day of administration before the administration of ^99mTc-maraciclatide, a transmission scan was obtained. The counts acquired from a flood or line source with and without the participant on the imaging couch were utilised to calculate body attenuation. Following intravenous administration of ^99mTc-maraciclatide, whole-body gamma scintigraphy was performed at 5 min post-administration up to 24 h as described below (section 2.6). Additional anterior and posterior planar images of the chest (45 min and 1 h 45 min, post-administration) and the pelvis (1 h 15 min and 2 h post-administration) were obtained for each participant.
(§2) Regions of interest (ROIs) were selected from organs and tissues on the whole-body scintigraphic images showing significant activity uptake. ^99mTc activity in ROIs was calculated using the methodology described in Medical Internal Radiation Dose (MIRD) Pamphlet No. 16 [15].
(§3) To calculate ^99mTc-maraciclatide ex-vivo activity, blood, plasma, urine, and faeces were collected at various time points after administration. Blood and plasma samples were collected at 10 min, 30 min, 1 h, 2 h, 4 h, 8 h, 24 h, 48 h, 72 h, and 7 days post-administration. Concentrations of maraciclatide in plasma were assayed using the LC-MS method (LOQ was 0.5 ng/ml). Urine was also collected at the same time points (if possible) up to 24 h post-administration. Faecal samples were collected as voided for up to 24 h post-administration. Assayed samples for ^99mTc-maraciclatide content were then measured using a gamma counter.
(§4) The biodistribution of ^99mTc was determined by whole-body conjugate view imaging in conjunction with extracorporeal activity measurements in whole blood, plasma, voided urine, and faeces, as described above. Simultaneous anterior and posterior whole-body images were acquired beginning nominally at 5 min, 15 min, 30 min, 60 min, 90 min, 3 h, 6 h and 12 h post-administration. A final anterior and posterior image pair was acquired at a ninth time-point between 21 and 24 h post-administration. Quantitative analysis of the incorporated data at multiple time points yielded biodistribution data consisting of activity in 10 specified organs or tissues [brain, salivary glands, thyroid gland, lungs, heart, spleen, liver, gallbladder, gastrointestinal (GI) tract and urinary bladder]. The remaining ^99mTc activity in other tissues was grouped within a ‘remaining tissues’ category. For each organ or tissue of interest, the ^99mTc activity was decay-corrected to the administration time and normalised to the injected activity. The temporal variation of this normalised and decay-corrected activity was then fit by one of several analytical functions, which was then integrated to yield the cumulated activity for that organ normalised to the injected activity.

healthy volunteers [2] = assay: clinical; parameters: species or system human; details: in vivo
Experimental: as §1, §2, §3, §4

healthy volunteers [3] = assay: clinical; parameters: species or system human; details: in vivo; remark: listed apart in the source
Experimental: as §3
Concentrations of maraciclatide in plasma were assayed using the LC-MS method (LOQ was 0.5 ng/ml). The mean apparent terminal elimination half-life was approximately 1 h. Overall, systemic clearance was approximately 6.7 ml/min/kg, whilst the mean apparent volume of distribution was approximately 520 ml/kg. The majority of ^99mTc activity was excreted through the urinary pathway and GI tract, 55% and 16%, respectively.

healthy volunteers [4] = system: healthy volunteers; parameters: species or system human; details: in vivo
Experimental: The mean absorbed doses per unit injected activity to 24 target organs were evaluated from this matrix of normalised cumulated activity values, using the MIRD schema, for a 70-kg adult human. The cumulated activity in the urinary bladder contents and voided urine was calculated using a dynamic urinary bladder model for a 3.5-h voiding interval. Cumulative activities in the GI tract were calculated using a dynamic model that assumed that activity enters the GI tract solely through hepatobiliary drainage. […] At later times, it was possible to identify the ^99mTc associated with the GI tract as predominantly that in the luminal contents. The overall time course of ^99mTc activity in a ROI set over the GI tract was typically that of an initial rapid decrease which then slowed to approach the amount present in the luminal contents. This observation was considered to be due to an initial rapid uptake and subsequent tissue clearance of ^99mTc from the GI tract walls combined with the slow introduction of ^99mTc into the GI contents via hepatobiliary transport. The activity in the luminal contents was isolated by first modelling the GI tract wall tissue clearance by the renormalised time course of activity measured in a ROI set over a region of soft tissue (the quadriceps femoris in one leg). […] The ED per unit injected activity was subsequently calculated from the ensemble of organ-absorbed dose values.
The effective dose (ED) was calculated from the ensemble of organ-absorbed dose values at 7.8 ± 0.8 μSv/MBq.

integrin receptor αvβ3 = details: background statement, no reference printed; listed as 99mTc-Maraciclatide; cited from earlier work
αvβ5 integrins = details: background statement, no reference printed; cited from earlier work
Excerpt: As such, it holds promise as a novel diagnostic imaging agent for a range of pathological conditions. […] Methods A phase 1, randomised, placebo-controlled study assessed the safety, biodistribution and radiation dosimetry of ^99mTc-maraciclatide in healt ...

SMILES: C/C(=N\O)C(C)(C)NCCC(CCNC(=O)CCCC(=O)NCCCC[C@@H]1NC(=O)CSC[C@@H](C(=O)NCCOCCOCCOCCNC(=O)COCC(N)=O)NC(=O)[C@H](Cc2ccccc2)NC(=O)[C@@H]2CSSC[C@H](NC1=O)C(=O)N[C@@H](CCCNC(=N)N)C(=O)NCC(=O)N[C@@H](CC(=O)O)C(=O)N2)CCNC(C)(C)/C(C)=N/O (some centres unmarked) [^99mTc-maraciclatide, metal not drawn] ({CH2CO}-K([Glutaryl-X1])CRGDCFC-X2; disulfide 2-6; thioether N-8; N-terminus and C-terminus assumed)
- number of non-serious AEs (healthy volunteers [1]; 24 participants receiving protocol-stipulated dose): 31
- deaths (healthy volunteers [1]; all dose groups, single i.v.): no deaths
- intensity of related AEs (healthy volunteers [1]; in vivo): mild intensity
- laboratory, ECG and vital signs parameters (healthy volunteers [1]; in vivo): no clinically important safety trends
- participants experiencing non-serious AEs (number) (healthy volunteers [1]; in vivo): 17
- participants experiencing non-serious AEs (percent) (healthy volunteers [1]; in vivo): 71%
- participants with AEs attributed to the agent (healthy volunteers [1]; in vivo): 6
- participants with AEs that required medical treatment (number) (healthy volunteers [1]; in vivo): 3
- participants with AEs that required medical treatment (percent) (healthy volunteers [1]; in vivo): 13%
- participants with reduction in red blood cell count (number) (healthy volunteers [1]; in vivo): 4
- participants with reduction in red blood cell count (percent) (healthy volunteers [1]; in vivo): 17%
- time to resolution of related AEs (healthy volunteers [1]; in vivo): ≤ 25 h
- dose excreted (clinical; 99mTc activity excreted through the GI tract): 16%
- dose excreted (clinical; 99mTc activity excreted through the urinary pathway): 55%
- normalised cumulated activity, combined walls of the small intestine and upper and lower large intestine (healthy volunteers [2]): 0.9 ± 0.2 MBq*h/MBq
- normalised cumulated activity, contents of the upper large intestine (healthy volunteers [2]): 0.3 ± 0.1 MBq*h/MBq
- normalised cumulated activity, liver (healthy volunteers [2]): 0.8 ± 0.2 MBq*h/MBq
- normalised cumulated activity, lung (healthy volunteers [2]): 0.4 ± 0.1 MBq*h/MBq
- uptake in the red bone marrow (healthy volunteers [2]): too low to be quantified
- systemic urinary clearance (healthy volunteers [3]): approximately 6.7 ml/min/kg
- mean effective dose (ED) per unit injected activity (healthy volunteers [4]): 7.8 μSv/MBq
- Absorbed dose per unit administered activity, Adrenal glands (healthy volunteers [4]; iv): 4.7 μGy/MBq
- Absorbed dose per unit administered activity, Bone surfaces (healthy volunteers [4]; iv): 4.5 μGy/MBq
- Absorbed dose per unit administered activity, Brain (healthy volunteers [4]; iv): 1.3 μGy/MBq
- Absorbed dose per unit administered activity, Breasts (healthy volunteers [4]; iv): 1.8 μGy/MBq
- Absorbed dose per unit administered activity, Gallbladder wall (healthy volunteers [4]; iv): 8.7 μGy/MBq
- Absorbed dose per unit administered activity, Heart wall (healthy volunteers [4]; iv): 6.1 μGy/MBq
- Absorbed dose per unit administered activity, Kidneys (healthy volunteers [4]; iv): 16.5 μGy/MBq
- Absorbed dose per unit administered activity, Liver (healthy volunteers [4]; iv): 11.1 μGy/MBq
- Absorbed dose per unit administered activity, Lower large intestine wall (healthy volunteers [4]; iv): 11.7 μGy/MBq
- Absorbed dose per unit administered activity, Lungs (healthy volunteers [4]; iv): 7.3 μGy/MBq
- Absorbed dose per unit administered activity, Muscle (healthy volunteers [4]; iv): 2.8 μGy/MBq
- Absorbed dose per unit administered activity, Ovaries (healthy volunteers [4]; iv): 6.3 μGy/MBq
- Absorbed dose per unit administered activity, Pancreas (healthy volunteers [4]; iv): 5.0 μGy/MBq
- Absorbed dose per unit administered activity, Red marrow (healthy volunteers [4]; iv): 3.0 μGy/MBq
- Absorbed dose per unit administered activity, Skin (healthy volunteers [4]; iv): 1.5 μGy/MBq
- Absorbed dose per unit administered activity, Small intestine wall (healthy volunteers [4]; iv): 8.9 μGy/MBq
- Absorbed dose per unit administered activity, Spleen (healthy volunteers [4]; iv): 16.1 μGy/MBq
- Absorbed dose per unit administered activity, Stomach (healthy volunteers [4]; iv): 3.8 μGy/MBq
- Absorbed dose per unit administered activity, Testes (healthy volunteers [4]; iv): 2.8 μGy/MBq
- Absorbed dose per unit administered activity, Thymus gland (healthy volunteers [4]; iv): 2.5 μGy/MBq
- Absorbed dose per unit administered activity, Thyroid gland (healthy volunteers [4]; iv): 4.9 μGy/MBq
- Absorbed dose per unit administered activity, Upper large intestine wall (healthy volunteers [4]; iv): 14.7 μGy/MBq
- Absorbed dose per unit administered activity, Urinary bladder wall (healthy volunteers [4]; iv): 36.2 μGy/MBq
- Absorbed dose per unit administered activity, Uterus (healthy volunteers [4]; iv): 7.5 μGy/MBq
- affinity to αvβ3 (integrin receptor αvβ3): high affinity
- affinity to αvβ5 (αvβ5 integrins): high affinity
